Laboratory results as given in article PMC3875647 (Worm, 2013).

Biological target: the molecule itself
Assay: SEC-MALS

B1: MBP-AA-SAS5-NTD (SAS-5 residues 1–260 fused to MBP with a two-alanine linker) (domain or fragment, C. elegans, UniProt Q20010 1-260, looked up)
chain: MNNYDDLPCSIYFKKPTVQEFVDQPRVFEDSEVPAFQEVLQLPQERTKPPVPSTQPIVAAVEVAKKKSCLSAPKPRKEPPSHPALRQKTVAFGKTVNVSQTVEGTSRNSKKVLASTMSAQNTTTTEEQAAENWRDAMKTELQTIRTEIQEETARRQEELNAQNLVKMQELMSNFFQKITIPKQQAIEPVEKDKENFHESPRQSRQQKPASKIASAREVIKRDGVIPPEALTIIEQRLRSDPMFRQQIDNVLADAECDANR
stoichiometry N: 4

B2: MBP-AA-SAS-5 aa82-260 (domain or fragment, C. elegans, UniProt Q20010 82-260, looked up)
chain: HPALRQKTVAFGKTVNVSQTVEGTSRNSKKVLASTMSAQNTTTTEEQAAENWRDAMKTELQTIRTEIQEETARRQEELNAQNLVKMQELMSNFFQKITIPKQQAIEPVEKDKENFHESPRQSRQQKPASKIASAREVIKRDGVIPPEALTIIEQRLRSDPMFRQQIDNVLADAECDANR
stoichiometry N: 4
